# Tests used:
# Experiment in all cases: co-IP
# GFP-tagged Rab4 = GFP-tagged Rab4 (UniProt P20338)
# [1] = biological target: Syntaxin13 (Stx13), endogenous in HEK cells (human (endogenous in HEK293T)) (UniProt Q86Y82)
# GFP-tagged GRIP1 = GFP-tagged GRIP1 (UniProt P97879)
# UniProt P97879, sequence (P97879 whole entry): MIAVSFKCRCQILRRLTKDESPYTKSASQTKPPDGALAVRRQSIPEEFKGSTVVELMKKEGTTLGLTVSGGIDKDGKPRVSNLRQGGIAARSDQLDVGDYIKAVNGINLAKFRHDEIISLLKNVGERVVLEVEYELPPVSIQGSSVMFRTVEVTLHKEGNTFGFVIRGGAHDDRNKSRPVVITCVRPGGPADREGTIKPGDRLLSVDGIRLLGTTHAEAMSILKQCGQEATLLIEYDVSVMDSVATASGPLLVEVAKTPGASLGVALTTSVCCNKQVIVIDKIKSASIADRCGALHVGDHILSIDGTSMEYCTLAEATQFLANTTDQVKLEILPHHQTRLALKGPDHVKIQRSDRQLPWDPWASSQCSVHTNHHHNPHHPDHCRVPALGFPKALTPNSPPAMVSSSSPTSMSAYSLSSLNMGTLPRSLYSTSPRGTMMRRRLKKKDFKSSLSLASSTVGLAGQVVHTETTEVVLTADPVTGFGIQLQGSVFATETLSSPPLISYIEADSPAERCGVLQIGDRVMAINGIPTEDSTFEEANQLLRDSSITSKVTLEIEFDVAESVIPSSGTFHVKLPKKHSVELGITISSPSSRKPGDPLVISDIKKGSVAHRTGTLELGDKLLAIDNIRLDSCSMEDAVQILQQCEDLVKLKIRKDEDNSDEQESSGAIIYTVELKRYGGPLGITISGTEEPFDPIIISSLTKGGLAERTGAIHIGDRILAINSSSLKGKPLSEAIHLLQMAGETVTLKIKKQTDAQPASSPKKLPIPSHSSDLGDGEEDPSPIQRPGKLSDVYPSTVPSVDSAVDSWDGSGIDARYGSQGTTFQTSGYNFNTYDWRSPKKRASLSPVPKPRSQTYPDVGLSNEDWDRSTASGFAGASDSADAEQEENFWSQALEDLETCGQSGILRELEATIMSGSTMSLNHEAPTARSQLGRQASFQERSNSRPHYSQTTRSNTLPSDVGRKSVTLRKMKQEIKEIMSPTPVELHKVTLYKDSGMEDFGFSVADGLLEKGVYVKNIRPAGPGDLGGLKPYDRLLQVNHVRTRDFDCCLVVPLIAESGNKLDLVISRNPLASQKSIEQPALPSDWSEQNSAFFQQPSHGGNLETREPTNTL
# UniProt P20338, sequence (P20338 whole entry): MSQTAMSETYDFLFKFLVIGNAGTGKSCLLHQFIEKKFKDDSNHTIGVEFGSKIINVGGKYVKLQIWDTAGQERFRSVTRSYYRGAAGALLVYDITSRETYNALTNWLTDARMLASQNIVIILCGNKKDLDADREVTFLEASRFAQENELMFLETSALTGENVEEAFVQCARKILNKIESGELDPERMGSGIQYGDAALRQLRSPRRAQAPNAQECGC
# UniProt Q86Y82, sequence (Q86Y82 whole entry): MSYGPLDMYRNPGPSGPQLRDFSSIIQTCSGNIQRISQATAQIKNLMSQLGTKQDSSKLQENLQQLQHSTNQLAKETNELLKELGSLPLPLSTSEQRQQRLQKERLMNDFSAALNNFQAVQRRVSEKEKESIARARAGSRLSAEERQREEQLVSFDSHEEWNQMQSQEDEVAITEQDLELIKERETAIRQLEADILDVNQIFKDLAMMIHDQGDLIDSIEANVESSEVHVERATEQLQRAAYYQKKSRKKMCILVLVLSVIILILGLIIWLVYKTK
"GRASP1 co-precipitated with Rab4, % WT (GFP-tagged Rab4) [% WT]","GRASP1 co-precipitated with Stx13, % WT [1] [% WT]","GRASP1 co-precipitated with GRIP1, % WT (GFP-tagged GRIP1) [% WT]",Substance
34.8,62.7,42.6,GRASP1 GBD deletion mutant (dGBD) (from UniProt Q8VD04 1-806) (natural protein)
105,83.2,43.7,GRASP1 R822Q (intellectual disability mutant) (from UniProt Q8VD04 1-806) (natural protein)
98.2,553,206,GRASP1 S73N (intellectual disability mutant) (from UniProt Q8VD04 1-806) (natural protein)
